Key:
purified protein [1] = substrate: CCCC(=O)N[C@H]1CCOC1=O; test: purified protein; conditions: pH 8.3
purified protein [2] = substrate: CCCCCCCCCC(=O)CC(=O)N[C@H]1CCOC1=O; test: purified protein; conditions: pH 8.3

B1: GcL (Parageobacillus caldoxylosilyticus NBRC 107762) (protein)
chain: MANVIKARPKLYVMDNGRMRMDKNWMIAMHNPATIHNPNAQTEFVEFPIYTVLIDHPEGKILFDTSCNPNSMGPQGRWAESTQQMFPWTATEECYLHNRLEQLKVRPEDIRYVVASHLHLDHAGCLEMFTNATIIVHEDEFNGALQCYARNQKEGAYIWADIDAWIKNNLQWRTVKRHEDNILLAEGVKVLNFGSGHAWGMLGLHVELPETGGIILASDAIYTAESYGPPIKPPGIIYDSLGYMNTVERIRRIAQETKSQVWFGHDAEQFKKFRKSTEGYYE
- Km (purified protein [1]): (9.8 ± 0.7) × 10^2 μM
- kcat/Km (purified protein [1]): 43000 M⁻¹ s⁻¹
- Km (purified protein [2]): 97 ± 9 µM

Reference: paper PMC7193897
